Assay [1] addresses T1, murine Tissue Factor in murine brain extracts (murine, UniProt P20352 29-294).
T1 sequence (looked up): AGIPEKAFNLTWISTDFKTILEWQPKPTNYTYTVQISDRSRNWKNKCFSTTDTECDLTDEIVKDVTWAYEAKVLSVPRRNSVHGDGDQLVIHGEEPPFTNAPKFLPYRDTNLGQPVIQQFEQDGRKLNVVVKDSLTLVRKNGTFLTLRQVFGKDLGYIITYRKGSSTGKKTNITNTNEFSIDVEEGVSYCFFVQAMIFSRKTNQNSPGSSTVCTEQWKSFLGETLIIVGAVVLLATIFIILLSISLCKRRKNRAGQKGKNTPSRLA
Kind of assay: cell-based or functional assay.

Assay [2] addresses T2, murine Tissue Factor on B6F10 melanoma cells (murine, UniProt P20352 29-294).
T2 construct: whole, on cells; also called cell-associated mTF
T2 sequence (looked up): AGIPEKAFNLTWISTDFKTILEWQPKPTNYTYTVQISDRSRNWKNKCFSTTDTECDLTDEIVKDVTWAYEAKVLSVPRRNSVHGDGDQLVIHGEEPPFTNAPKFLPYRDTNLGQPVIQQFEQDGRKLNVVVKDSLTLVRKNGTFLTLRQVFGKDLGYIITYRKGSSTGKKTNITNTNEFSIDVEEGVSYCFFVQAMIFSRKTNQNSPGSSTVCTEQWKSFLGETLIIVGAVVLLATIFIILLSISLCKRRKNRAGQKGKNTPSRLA
Kind of assay: FACS on B6F10 melanoma cells that express mTF.

B1: PHD126 Fab (Fab, V domains shown)
VH: QVQLVQSGAEVKKPGESLKISCKGSYSFSNYWIGWVRQMPGKGLEWMGFIDPDDSDTNYSPSFQGQVTISADKSISTAYLQWSSLKASDTAMYYCARALYMQGGSFDSWGQGTLVTVSS
VL: DIELTQPPSVSVAPGQTARISCSGDNLGSYYVSWYQQKPGQAPVLVIYRDTDRPSGIPERFSGSNSGNTATLTISGTQAEDEADYYCQSYDYGVSNQVFGGGTKLTVLG
In the case of B1, the “EC50 Conc. (ug/ml), inhibition of fibrin clot formation in human plasma” value (from here on “EC50 Conc. (ug/ml), inhibition”) in assay [1] worked out at 0.23 µg/mL.

B2: PHD104 Fab (Fab, V domains shown)
VH: QVQLVQSGAEVKKPGESLKISCKGSYSFTSNWIGWVRQMPGKGLEWMGWIYPSDSMTRYSPSFQGQVTISADKSISTAYLQWSSLKASDTAMYYCARYLFGLFDNWGQGTLVTVSS
VL: DIELTQPPSVSVAPGQTARISCSGDNLGSYYVSWYQQKPGQAPVLVIYNDNNRPSGIPERFSGSNSGNTATLTISGTQAEDEADYYCATYDSSTDVFGGGTKLTVLG
Take B2: the “EC50 Conc. (ug/ml), inhibition” value in assay [1] was determined as 23.8 µg/mL.

B3: PHD127 Fab (Fab, V domains shown)
VH: QVQLVQSGAEVKKPGESLKISCKGSYSFTNSWISWVRQMPGKGLEWMGIIDPDDSYTSYSPSFQGQVTISADKSISTAYLQWSSLKASDTAMYYCARGAGYGRMFGDVWGQGTLVTVSS
VL: DIELTQPPSVSVAPGQTARISCSGDNLGSYYASWYQQKPGQAPVLVIYQDDNRPSGIPERFSGSNSGNTATLTISGTQAEDEADYYCGAYTYSTSWVFGGGTKLTVLG
notes: Human HuCAL Fab; 8 (VH) and 9 (VL) for PHD127 are inferred from the order of the words and must be checked against the listing
The term EC50 denotes the concentration giving half of the maximal effect. Low values mean a more potent agent, high ones a less potent agent. Take B3: the EC50 in assay [2] amounted to 4.35 nM. The “EC50 Conc. (ug/ml), inhibition” value in assay [1] was 0.82 µg/mL.

B4: PHD103 Fab (Fab, V domains shown)
VH: QVQLVQSGAEVKKPGESLKISCKGSGYSFSNSWIAWVRQMPGKGLEWMGGIIGPGHSYTKYSPSFQGQVTISADKSISTAYLQWSSLKASDTAMYYCARINMGYFDYWGQGTLVTVSS
VL: DIELTQPPSVSVAPGQTARISCSGDSLGLKKFVSWYQQKPGQAPVLVIYDDSNRPSGIPERFSGSNSGNTATLTISGTQAEDEADYYCGTYDQTIGHDVVFGGGTKLTVLG
For the molecule B4, the “EC50 Conc. (ug/ml), inhibition” value in assay [1] is 63.3 µg/mL.

Values taken from EP1747015B1 (Janssen Biotech, Inc., dated 2012).
